# Article PMC2649033, “Comparison between the HCV IRES domain IV RNA structure and the Iron Responsive Element”
# How the values were obtained:
# Settings in all cases: protein: recombinant; label: 32P-CTP; hairpin
# hIRP1 (GST fusion) [1] = target: T1, hIRP1 (GST fusion) (human, UniProt P21399 1-889); test: EMSA; 240 ng hIRP1; 10 mM HEPES pH 7.6, 2 mM MgCl2, 40 mM KCl, 5% glycerol, 1 mM DTT, 20 uL, room temperature 30 min, […] (7%/14%) […]
# T1 sequence: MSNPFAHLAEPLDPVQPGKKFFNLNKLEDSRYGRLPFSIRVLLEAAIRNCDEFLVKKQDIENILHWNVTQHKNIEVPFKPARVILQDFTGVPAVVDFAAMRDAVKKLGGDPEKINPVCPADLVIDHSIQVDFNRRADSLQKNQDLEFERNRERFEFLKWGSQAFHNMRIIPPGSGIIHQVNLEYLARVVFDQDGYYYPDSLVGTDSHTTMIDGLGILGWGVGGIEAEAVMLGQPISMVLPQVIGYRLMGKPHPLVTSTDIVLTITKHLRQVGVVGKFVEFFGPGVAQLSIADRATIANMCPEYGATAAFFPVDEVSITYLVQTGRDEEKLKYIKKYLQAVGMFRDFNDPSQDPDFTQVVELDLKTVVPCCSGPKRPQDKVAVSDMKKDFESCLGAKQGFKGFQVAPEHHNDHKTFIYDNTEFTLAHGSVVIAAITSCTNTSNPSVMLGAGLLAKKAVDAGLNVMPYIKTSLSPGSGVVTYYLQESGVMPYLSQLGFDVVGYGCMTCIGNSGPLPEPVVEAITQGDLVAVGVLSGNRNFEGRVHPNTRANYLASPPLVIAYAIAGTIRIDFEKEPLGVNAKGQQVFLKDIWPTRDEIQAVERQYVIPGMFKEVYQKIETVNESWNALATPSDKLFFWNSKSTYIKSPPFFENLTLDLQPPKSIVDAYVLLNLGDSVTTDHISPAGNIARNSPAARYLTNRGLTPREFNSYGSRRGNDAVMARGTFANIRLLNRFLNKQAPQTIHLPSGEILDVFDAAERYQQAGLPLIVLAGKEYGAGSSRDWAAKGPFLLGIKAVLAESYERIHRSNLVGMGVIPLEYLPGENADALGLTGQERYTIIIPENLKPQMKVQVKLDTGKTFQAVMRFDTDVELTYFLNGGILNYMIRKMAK
# hIRP1 (GST fusion) [2] = target: T1, hIRP1 (GST fusion); test: EMSA; 2 mM Mg2+; 5.2 nM RNA; data not shown; 10 mM HEPES pH 7.6, 2 mM MgCl2, 40 mM KCl, 5% glycerol, 1 mM DTT, 20 uL, room temperature 30 min, […] (7%/14%) […]
# hIRP1 (GST fusion) [3] = target: T1, hIRP1 (GST fusion); test: EMSA; 240 ng hIRP1; 10 mM HEPES pH 7.6, 2 mM MgCl2, 40 mM KCl, 5% glycerol, 1 mM DTT, 20 uL, room temperature 30 min, then heparin 0.63 ug/uL 10 min; native PAGE (7%/14%) in 0.5x TBE
# hIRP1 (GST fusion) [4] = target: T1, hIRP1 (GST fusion); test: EMSA; 240 ng hIRP1; also bound at 100 ng; approx. equal to ET1+2+3; 10 mM HEPES pH 7.6, 2 mM MgCl2, 40 mM KCl, 5% glycerol, 1 mM DTT, 20 uL, room temperature 30 min, then heparin 0.63 ug/uL 10 min; native PAGE (7%/14%) in 0.5x TBE
# hIRP1 (GST fusion) [5] = target: T1, hIRP1 (GST fusion); test: EMSA; 2 mM Mg2+; 5.2 nM RNA; mean of 3 experiments; 10 mM HEPES pH 7.6, 2 mM MgCl2, 40 mM KCl, 5% glycerol, 1 mM DTT, 20 uL, room temperature 30 min, […] (7%/14%) […]
binder,measurement,setting,value
GACCGUGCACCGUGAGCACGAAUC (structured_RNA) [ET1],binding result,hIRP1 (GST fusion) [1],no binding
GACCGUGCCCGUGAGCACGUC (structured_RNA) [ET1+2+3],Kd,hIRP1 (GST fusion) [2],~0.05 nM
GUUCGUCCUGCUCCGAGGGCAAC (structured_RNA) [IRE (-) negative control],binding result,hIRP1 (GST fusion) [3],no binding
GACCGUGCACCAUGAGCACGAAUC (structured_RNA) [HCV IRES dIV wild type],binding result,hIRP1 (GST fusion) [1],no binding
GUUCGUCCUCAGUGCAGGGCAAC (structured_RNA) [eALAS IRE],binding result,hIRP1 (GST fusion) [4],binds
GACCGUGCCCAUGAGCACGUC (structured_RNA) [ET2+3],Kd,hIRP1 (GST fusion) [5],54 ± 13 nM
